These results are taken from publication PMC2568865, “Hsp90-Dependent Activation of Protein Kinases Is Regulated by Chaperone-Targeted Dephosphorylation of Cdc37” (Molecular Cell, 2008).

The target of test [1] is T1, Cdc37 (human, Sf9-expressed) dephosphorylated with λ-phosphatase (human, UniProt Q16543 1-378).
T1 construct: human Cdc37 (p50), Ser13 dephosphorylated in vitro by λPP; Same construct as m2 after treatment with λPP; also called dephosphorylated Cdc37; Cdc37 in dephosphorylated C-K or H-C-K complex; source: Sf9 cells, baculovirus; purified in the C-K and H-C-K complexes, then dephosphorylated with λ-phosphatase (NEB)
T1 sequence (looked up): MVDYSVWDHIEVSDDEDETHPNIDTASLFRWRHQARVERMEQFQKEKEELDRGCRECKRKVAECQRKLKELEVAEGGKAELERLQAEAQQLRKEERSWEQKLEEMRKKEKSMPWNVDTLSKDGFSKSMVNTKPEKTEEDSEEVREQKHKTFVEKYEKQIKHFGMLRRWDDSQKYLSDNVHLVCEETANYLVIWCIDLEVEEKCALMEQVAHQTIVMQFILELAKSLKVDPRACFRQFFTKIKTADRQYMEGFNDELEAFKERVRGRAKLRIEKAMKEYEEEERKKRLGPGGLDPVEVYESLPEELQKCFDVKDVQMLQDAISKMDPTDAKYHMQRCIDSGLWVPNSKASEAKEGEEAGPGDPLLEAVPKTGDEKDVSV
The test is described as follows: SEC; purified C-K complex incubated with or without λPP (1:10) for 1 hr at room temperature; Superose 6 HR10/30 in 50 mM Tris pH 7.5, 10 mM KCl, 10 mM MgCl2, 150 mM NaCl, 1 mM EDTA, 3 mM DTT; 1 ml fractions probed by Western blot. Conditions: both partners purified. A general note: SEC sorts molecules by how far they enter the pores of the column.

Test [2] deals with T2, pSer13-Cdc37 (human Cdc37 expressed in Sf9 cells, phosphorylated on Ser13) (human, UniProt Q16543 1-378, phosphoserine at 13).
T2 construct: human Cdc37 (p50), phosphorylated on Ser13 in the insect cells; also called p50; Sf9-expressed Cdc37; source: Sf9 cells, baculovirus; purified in the C-K and H-C-K complexes with His6-Cdk4; free Cdc37 obtained as a by-product of the H-C-K complex purification
T2 sequence (looked up): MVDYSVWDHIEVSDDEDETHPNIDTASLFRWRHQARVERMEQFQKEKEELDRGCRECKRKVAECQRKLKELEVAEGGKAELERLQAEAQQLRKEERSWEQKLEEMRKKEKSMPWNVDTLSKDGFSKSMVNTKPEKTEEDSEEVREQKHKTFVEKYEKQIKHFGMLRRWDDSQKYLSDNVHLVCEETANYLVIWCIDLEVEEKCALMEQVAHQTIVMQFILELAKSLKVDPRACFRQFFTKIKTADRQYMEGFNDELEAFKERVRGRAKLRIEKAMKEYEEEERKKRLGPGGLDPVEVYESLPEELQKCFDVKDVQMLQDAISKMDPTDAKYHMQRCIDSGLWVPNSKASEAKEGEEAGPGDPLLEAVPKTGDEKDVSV
As to the kind of experiment: co-purification (His6 affinity); human Cdc37 and N-terminally His6-tagged Cdk4 co-expressed in Sf9 cells by baculovirus; complexes purified via the His6 tag on Cdk4; Coomassie-stained SDS-PAGE. Conditions: partners not purified.

The next test addresses T3, full-length human Hsp90α (human, UniProt P07900 1-732).
T3 construct: human Hsp90α
The test is described as follows: pull-down; GST-PP5 on glutathione Sepharose with Cdc37 or CK2-phosphorylated Cdc37 preincubated with Hsp90α for 1 hr; 4°C, 2 hr; 50 mM HEPES pH 7.5, 150 mM NaCl, 0.1% NP40, BSA; PP5 dephosphorylates Cdc37 during the incubation. Conditions: both partners purified.

B1: His6-tagged Cdk4 (enzyme, human, UniProt P11802 1-303, looked up)
chain: MATSRYEPVAEIGVGAYGTVYKARDPHSGHFVALKSVRVPNGGGGGGGLPISTVREVALLRRLEAFEHPNVVRLMDVCATSRTDREIKVTLVFEHVDQDLRTYLDKAPPPGLPAETIKDLMRQFLRGLDFLHANCIVHRDLKPENILVTSGGTVKLADFGLARIYSYQMALTPVVVTLWYRAPEVLLQSTYATPVDMWSVGCIFAEMFRRKPLFCGNSEADQLGKIFDLIGLPPEDDWPRDVSLPRGAFPPRGPRPVQSVVPEMEESGAQLLLEMLTFNPHKRISAFRALQHSYLHKDEGNPE
notes: Cdk4, Cdc37/Hsp90-dependent protein kinase; also called K (in C-K and H-C-K); source: Sf9 cells, baculovirus, co-expressed with human Cdc37; purified via the His6 tag as C-K and H-C-K complexes; not shown: His6, N-terminal, kept
As for B1, the binding result in test [1] and in test [2] was “binds” in each case.

B2: pSer13-Cdc37 (E. coli-expressed Cdc37 phosphorylated in vitro with CK2) (natural protein, human, UniProt Q16543 1-378, looked up)
chain: MVDYSVWDHIEVSDDEDETHPNIDTASLFRWRHQARVERMEQFQKEKEELDRGCRECKRKVAECQRKLKELEVAEGGKAELERLQAEAQQLRKEERSWEQKLEEMRKKEKSMPWNVDTLSKDGFSKSMVNTKPEKTEEDSEEVREQKHKTFVEKYEKQIKHFGMLRRWDDSQKYLSDNVHLVCEETANYLVIWCIDLEVEEKCALMEQVAHQTIVMQFILELAKSLKVDPRACFRQFFTKIKTADRQYMEGFNDELEAFKERVRGRAKLRIEKAMKEYEEEERKKRLGPGGLDPVEVYESLPEELQKCFDVKDVQMLQDAISKMDPTDAKYHMQRCIDSGLWVPNSKASEAKEGEEAGPGDPLLEAVPKTGDEKDVSV
modifications: phosphoserine at 13
notes: human Cdc37 (p50), phosphorylated on Ser13 by CK2 in vitro; also called phosphorylated Cdc37; pCdc37; source: E. coli, purified, phosphorylated in vitro with CK2 (Promega), further purified on Resource Q
Turning to B2, in the test with full-length human Hsp90α, the binding result is “binds”.

B3: Cdc37 (E. coli-expressed, unphosphorylated) (natural protein, human, UniProt Q16543 1-378, looked up)
chain: MVDYSVWDHIEVSDDEDETHPNIDTASLFRWRHQARVERMEQFQKEKEELDRGCRECKRKVAECQRKLKELEVAEGGKAELERLQAEAQQLRKEERSWEQKLEEMRKKEKSMPWNVDTLSKDGFSKSMVNTKPEKTEEDSEEVREQKHKTFVEKYEKQIKHFGMLRRWDDSQKYLSDNVHLVCEETANYLVIWCIDLEVEEKCALMEQVAHQTIVMQFILELAKSLKVDPRACFRQFFTKIKTADRQYMEGFNDELEAFKERVRGRAKLRIEKAMKEYEEEERKKRLGPGGLDPVEVYESLPEELQKCFDVKDVQMLQDAISKMDPTDAKYHMQRCIDSGLWVPNSKASEAKEGEEAGPGDPLLEAVPKTGDEKDVSV
notes: human Cdc37 (p50), not phosphorylated; also called WT-Cdc37; nonphosphorylated Cdc37; source: E. coli, purified
With B3, the binding result in the test with full-length human Hsp90α is “binds”.
